# T1: rat AILIM (rat) (UniProt Q9R1T7)
# T1 sequence (looked up): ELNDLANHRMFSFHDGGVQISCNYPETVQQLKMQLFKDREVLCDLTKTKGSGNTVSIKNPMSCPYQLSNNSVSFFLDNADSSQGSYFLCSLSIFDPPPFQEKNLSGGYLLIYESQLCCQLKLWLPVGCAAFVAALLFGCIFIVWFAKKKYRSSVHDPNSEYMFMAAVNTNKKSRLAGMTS
# T2: human AILIM-IgFc (recombinant chimeric antigen of the extracellular region of human AILIM and the constant region (Fc) of human IgG1) (human) (UniProt Q9Y6W8)
# T2 sequence (biotin-labeled in the inhibition ELISA of Example 14, looked up): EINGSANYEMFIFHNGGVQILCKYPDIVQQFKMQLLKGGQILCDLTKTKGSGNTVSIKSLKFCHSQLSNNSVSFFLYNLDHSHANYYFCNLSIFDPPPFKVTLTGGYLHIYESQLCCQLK
# T3: mouse AILIM (mouse) (UniProt Q9WVS0)
# T3 sequence (looked up): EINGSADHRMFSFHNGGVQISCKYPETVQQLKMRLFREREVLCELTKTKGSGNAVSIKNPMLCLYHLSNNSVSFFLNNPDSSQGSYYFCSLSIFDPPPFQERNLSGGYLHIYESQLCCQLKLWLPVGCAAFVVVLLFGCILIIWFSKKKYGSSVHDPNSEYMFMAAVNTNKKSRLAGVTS
# Legend:
# rat AILIM (rat) = biological target: T1, rat AILIM (rat); assay: cell ELISA on recombinant CHO cells overexpressing rat AILIM; given as ED50
# [1] = biological target: T2, human AILIM-IgFc (recombinant chimeric antigen of the extracellular region of human AILIM and the constant region (Fc) of human IgG1) (human); assay: SPR, Biacore X; human AILIM-IgFc immobilised on sensor chip, antibody in flow
# [2] = biological target: human AILIM (activation inducible lymphocyte immunomodulatory molecule) (human) (UniProt Q9Y6W8); assay: cell ELISA on recombinant CHO cells overexpressing human AILIM; given as ED50
# mouse AILIM (mouse) = biological target: T3, mouse AILIM (mouse); assay: cell ELISA on recombinant CHO cells overexpressing mouse AILIM; given as ED50
Binder,EC50 (rat AILIM (rat)) [µg/mL],Kd [1] [nM],koff [1] [s⁻¹],EC50 [2] [µg/mL],EC50 (mouse AILIM (mouse)) [µg/mL]
"human anti-human AILIM monoclonal antibody JMab-138 (clone AII289) (antibody, from another filing, human IgG2, V domains shown) VH: EVQLVESGGGLVQPGGSLRLSCAASGFTFSSYDMHWVRQATGKGLEWVSAIGTAGDTYYPGSVKGRFTISRENAKNSLYLQMNSLRAGDTAVYYCVRDNRKVTHEHYYYYGMDVWGQGTTVTVSS VL: EIVLTQSPGTLSLSPGERATLSCRASQNIRSSYLAWYQQKPGQAPGLLIYGASSRATGIPDRFSGSGSGTDFTLTISRLEPEDFAVYYCQQFGSSPMCSFGQGTKLEIKR",0.057,1.1,4.2e-05,0.0105,0.053
"human anti-human AILIM monoclonal antibody JMab-139 (clone AII394) (antibody, from another filing, human IgG2, V domains shown) VH: EVQLVESGGGLVQPGGSLRLSCAASGFTFSSYDMHWVRQATGKGLEWVSAIGTAGDTYYPGSVKGRFTISRENAKNSLYLQMNSLRAGDTAVYYCVRDKRTVTHEHYYYYGMDVWGQGTTVTVSS VL: EIVLTQSPGTLSLSPGERATLSCRASQSISSSSLAWYQQKPGQAPGLLIFGASSRATGIPDRFSGSGSGTDFTLTISRLEPEDFAVYYCQQFGSSPMCSFGQGTKLEIKR",0.09,0.77,2.4e-05,0.0106,0.06

# Reference: patent publication US20020102658A1
